In this experiment the target is T1, human TIGIT fused to Fc (human, UniProt Q495A1 22-141).
T1 construct: Called a dimeric form of TIGIT; also called human TIGIT-Fc; human dimeric TIGIT-Fc; not shown: Fc
T1 sequence: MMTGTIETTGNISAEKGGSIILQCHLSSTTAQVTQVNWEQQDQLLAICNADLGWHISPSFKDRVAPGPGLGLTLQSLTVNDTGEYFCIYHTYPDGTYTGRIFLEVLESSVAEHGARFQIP
In words: SPR, human TIGIT-Fc captured on CM5 chip, BA002 Fab in solution, 1:1 model. On the procedure: Briefly, surface plasmon resonance experiments were performed using a Biacore T200 instrument, and the association rate (Kₐ), dissociation rate (Kd), and dissociation constant (KD) were calculated from each experiment using a 1:1 binding model with Biacore T200 Evaluation Software.
In a similar experiment measuring binding of a monovalent form of BA002 to human TIGIT-Fe, human TIGIT-Fc was captured on flow-cell 2 of a CM5 chip, keeping flow-cell 1 as reference, at a flow rate of 5 μL/min. […] The higher calculated dissociation rate between human TIGIT-Fc and BA002 Fab, relative to the calculated dissociation rate between human TIGIT-Fc and full-length BA002 described above, is consistent with the presence of an avidity effect with the bivalent form of BA002.
For orientation: Surface plasmon resonance follows binding to a sensor surface in real time, without labels.

For one molecule, Kd, koff and kon results are on record in patent US20240141047A1 (AGENUS, published 2024).

B1: BA002 in Fab format (Fab, V domains shown)
VH: EVQLVQSGAEVEKPGASVKVSCKASGYTFASYGISWVRQAPGQGLEWMGGITPFFNRVDVAEKFQGRVTITADTSTNTVYIELSSLTSEDTAVYYCARDLRRGGVGDAFDIWGRGTLVTVSS
VL: QSALTQPRSVSGSPGQSVTISCTGTSSDVGSHNYVSWYQQHPGKAPQLMIYEVSYRPSEISNRFSGSKSGNTASLTISGLQPEDEADYYCSSYTPSSATVFGAGTKLTVLG
modifications: chain 1 pos 1: glutamate or pyroglutamate (from Glu), written E; chain 2 pos 1: glutamine or pyroglutamate (from Gln), written Q
notes: also called BA002 Fab; monovalent form of BA002
In the case of B1, the Kd came to 6.8 nM, the koff worked out at 0.019 s⁻¹ and the kon was determined as 2.8e+06 M⁻¹ s⁻¹.

By Kd is commonly meant the concentration at which binding is half-saturated. A high value points to lower affinity. What is called koff is the first-order rate constant of dissociation. Low readings indicate a long-lived complex, high ones a short-lived complex. In general, kon refers to the second-order rate constant of association.
